Test results taken from US20220265821A1 (PASCAL BIOSCIENCES, published 2022).
Read-outs that look alike come from different tables or passages of the source.

T1: human VpreB (on the pre-BCR-expressing human pre-B cell line NALM-6) (human, UniProt P12018 20-145)
T1 construct: On NALM-6 cells VpreB stands in the pre-BCR together with lambda-5 and the mu heavy chain; also called VPREB1; VpreB subunit of the SLC of human pre-BCR
T1 sequence: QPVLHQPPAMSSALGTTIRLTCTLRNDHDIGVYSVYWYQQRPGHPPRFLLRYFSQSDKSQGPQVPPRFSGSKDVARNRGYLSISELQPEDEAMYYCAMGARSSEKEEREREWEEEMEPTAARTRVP

B1: VpreB antibody 5-2D7 (recombinant mouse-human chimeric IgG1/kappa) (antibody, V domains shown)
VH: QVQLQQPGAELVKPGASVKLSCKASGYTFTSYWMQWVKQRPGQGLEWIGEINPSNGRINYNEKFKSKATLTVDISSSTAYMQLSSLTSEDSAVYYCARSGLLDYWGQGTTLTDSS
VL: DVLMTQTPLSLPVSLGDQASISCRSSQSLIHSNGNTYLHWSLQKPGQSPKLLIYKVSNRFSGVPDRFSGSGSGTDFTLKISSVEAEDLGVYFCSQSTYVPLTFGAGTKLELKR
notes: also called mAb 5-2D7
B2: VpreB antibody 5-4A9 (recombinant mouse-human chimeric IgG1/kappa) (antibody, V domains shown)
VH: EVQLQQSGAELVKPGASVQLSCKASGYTFTSYWMQWVKQRPGQGLEWIGEINPSNGRNNYNEKFKRKATLTVDTSSSTAYMQLSSLTSEDSAVYYCARSGLLDYWGQGTTLTVSS
VL: DVLMTQTPLSLPVSLGDQASISCRSSQSLVHSNGNTYLHWYLQKPGQSPKLLIYKVSNRFSGVPDRFSGSGSGTDFTLTISRVEAEDLGVYFCSQSTYVPLTFGAGTKLELKR
notes: also called mAb 5-4A9
B3: VpreB antibody 5-14H5 (recombinant mouse-human chimeric IgG1/kappa) (antibody, V domains shown)
VH: QVQLQQPGAELVKPGASVKLSCKASGYTFTSNWMNWVKQRPGQGLEWIGEINPSNGRINYNEKFKSKATLTVDKSSSTAYMQLSSLTSEDSAVYYCARSGLLDYWGQGTTLTVSS
VL: DVLMTQTPLSLPVSLGDQASISCRSSQSLVHSNGNTYLHWYLQKPGQSPKLLIYKVSNRFSGVPDRFSGSGSGTDFTLKISRVEAEDLGVYFCSQSTYLPLTFGAGTRLELKR
notes: also called mAb 5-14H5
B4: VpreB antibody 5-11D1 (recombinant mouse-human chimeric IgG1/kappa) (antibody, V domains shown)
VH: EVQLEESGPSLVKPSQTLSLTCSVTGDSITSDYWTWIRKFPGNKLEYMGYISYSGRTYYNPSLKSRISITRDTSRNQYYLQLSSVTTEDTATYYCARERYYYGSLDYWGQGTTLTVSS
VL: DVLMTQTPLSLPVSLGDQASISCRSSQSLVHSNGNTYLHWYLQKPGQSPKLLIYKVSNRFSGVPDRFSGSGSGTDFTLKISRVEAEDLGVYFCSQTTHVPPTFGGGTKLEIKR
notes: also called mAb 5-11D1
B5: VpreB antibody 5-9B12 (recombinant mouse-human chimeric IgG1/kappa) (antibody, V domains shown)
VH: EVQLEESGPSLVKPSQTLSLTCSVTGDSITSDYWTWIRKFPGNKLEYMGYISYSGRTYYNPSLKSRISITRDTSKKQYYLQLNSVTTEDTATYYCARERYYYGSLDYWGQGTTLTVSS
VL: DVVMTQTPLSLPVSLGDQASISCRSSQSLVHSNGNTYLHWYLQKPGQSPKLLIYKVSNRFSGVPDRFSGSGSGTDFTLKISRVEAEDLGVYFCSQTTHVPPTFGGGTKLEIKR
notes: also called mAb 5-9B12
B6: VpreB antibody 5-14A8 (recombinant mouse-human chimeric IgG1/kappa) (antibody, V domains shown)
VH: EVQLEESGPSLVKPSQTLSLTCSVTGDSITSDYWTWIRKFPGNILEYMGYISSSGRIYYNPSLKSRISITRDTSKNQYYLQLSSVTTEDTATYYCARERYYYGSLDYWGQGTTLTVSS
VL: DVLMTQTPLSLPVSLGDQASISCRSSQGLVHSNGNTYLHWYLQKPGQSPKLLIYKVSNRFSGVPDRFSGSGSGTDFTLKISRVEAEDLGVYFCSQTTHVPPTFGGGTKLEIKR
notes: also called mAb 5-14A8
B7: lambda-5 antibody 4-19A9 (recombinant mouse-human chimeric IgG1/kappa) (antibody, V domains shown)
VH: EVQLQQSGTVLARPGASVKMSCKASGYTFTSYWMHWVKQRPGQGLEWIGAIYPGNSDTSYNQKFKGKARLTAVTSASTAYMELSSLTNEDSAVYYCTRADYDGTPFDYWGQGTTLTVSS
VL: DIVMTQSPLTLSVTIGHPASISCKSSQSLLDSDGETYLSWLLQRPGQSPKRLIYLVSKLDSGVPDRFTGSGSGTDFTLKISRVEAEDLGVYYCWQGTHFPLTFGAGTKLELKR
notes: also called mAb 4-19A9
B8: lambda-5 antibody 4-6D12 (recombinant mouse-human chimeric IgG1/kappa) (antibody, V domains shown)
VH: EVQLQQSGTVLARPGASVKMSCKASGYTFTNYWMHWVKQRPGQGLEWIGAIYPGNSDTSYNQKFKGKAKLTAVTSASTAYMELSSLTNEDSAVYFCTRADYDGTPFDYWGQGTTLTVSS
VL: DILMTQSPLTLSVTIGHPASISCKSSQSLLDSDGETYLSWLLQRPGQSPERLIYLVSKLDSGVPDRFTGSGSGTDFTLKISRVEAEDLGVYYCWQGTHFPLTFGAGTKLELKR
notes: also called mAb 4-6D12
B9: lambda-5 antibody 4-7A6 (recombinant mouse-human chimeric IgG1/kappa) (antibody, V domains shown)
VH: EVQLQQSGTVLARPGTSVKMSCKASGYTFTSYWMHWVKQRPGQGLEWIGAIYLGNTDTSYNQKFKGKAKLTAVTSASSAYMELSSLTNEDSAVYYCTRADYDGTPFDYWGQGTTLTVSS
VL: DVVMTQNALTLSVTIGHPASISCRSSQSLLDSDGETYLSWLLQRPGQSPKRLIYLVSKLDSGVPDRFTGSGSGTDFTLKISRVEAEDLGVYYCWQGTHFPLTFGAGTKLELKR
notes: also called mAb 4-7A6
B10: lambda-5 antibody 4-7C1 (recombinant mouse-human chimeric IgG1/kappa) (antibody, V domains shown)
VH: EVQLQQSGTVLARPGASVKMSCRPSGYTFTSYWMHWVKQRPGQDLEWIGAIYPGNSDTSYNQKFKGKAKLTAVTSASTAYMELSSLTNEDSAVYYCTRADYDGTPFDYWGQGTTLTVSS
VL: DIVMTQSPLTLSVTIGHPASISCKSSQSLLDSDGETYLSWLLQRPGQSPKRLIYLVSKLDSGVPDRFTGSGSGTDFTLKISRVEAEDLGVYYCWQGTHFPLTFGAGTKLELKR
notes: also called mAb 4-7C1
B11: lambda-5 antibody 4-17G9 (recombinant mouse-human chimeric IgG1/kappa) (antibody, V domains shown)
VH: EVQLQQSGTVLARPGASVKMSCQASGYTFTNYWMHWVKQRPGQGLEWIGAIYPGNSDTSYNQNFKGKAELTAVTSATTAYMELSSLTDEDSAVYYCTRADYDGTPFDYWGQGTTLTVSS
VL: DIVMTQSPLTLSVTIGHPASISCKSSQSLLDSDGETYLSWLLQRPGQSPKRLIYLVSKLDSGVPDRFTGSGSGTDFTLKISRVEAEDLGVYYCWQGTHFPLTFGAGTKVELKR
notes: also called mAb 4-17G9
B12: lambda-5 antibody 4-18G6 (recombinant mouse-human chimeric IgG1/kappa) (antibody, V domains shown)
VH: EVQLQQSGTVLARPGASVKMSCKASGYTFTNYWMHWVKQRPGQGLEWIGAVYPGNSDTSYSQKFTGKAKLTAVTSASTAYMDLSSLTNEDSAVYYCTRADYDGTPFDYWGQGTTLTVSS
VL: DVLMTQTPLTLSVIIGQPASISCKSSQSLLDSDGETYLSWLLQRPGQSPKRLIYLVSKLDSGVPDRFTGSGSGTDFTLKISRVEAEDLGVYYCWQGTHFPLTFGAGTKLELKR
notes: also called mAb 4-18G6
B13: lambda-5 antibody 4-20D2 (recombinant mouse-human chimeric IgG1/kappa) (antibody, V domains shown)
VH: EVQLQQSGTVLARPGASVKMSCKASGYSFTSYWMHWVKQRPGQGLEWIGAIYPGNSDTSYNQKFKGKAKLTAVTSASTAYMELSSLTNEDSAVYYCTRGDYDGTPFDYWGQGTTLTVSS
VL: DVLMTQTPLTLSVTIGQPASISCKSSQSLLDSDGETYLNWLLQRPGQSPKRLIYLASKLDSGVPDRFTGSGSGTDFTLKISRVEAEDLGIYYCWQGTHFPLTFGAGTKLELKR
notes: also called mAb 4-20D2
B14: lambda-5 antibody 4-5G11 (recombinant mouse-human chimeric IgG1/kappa) (antibody)
heavy: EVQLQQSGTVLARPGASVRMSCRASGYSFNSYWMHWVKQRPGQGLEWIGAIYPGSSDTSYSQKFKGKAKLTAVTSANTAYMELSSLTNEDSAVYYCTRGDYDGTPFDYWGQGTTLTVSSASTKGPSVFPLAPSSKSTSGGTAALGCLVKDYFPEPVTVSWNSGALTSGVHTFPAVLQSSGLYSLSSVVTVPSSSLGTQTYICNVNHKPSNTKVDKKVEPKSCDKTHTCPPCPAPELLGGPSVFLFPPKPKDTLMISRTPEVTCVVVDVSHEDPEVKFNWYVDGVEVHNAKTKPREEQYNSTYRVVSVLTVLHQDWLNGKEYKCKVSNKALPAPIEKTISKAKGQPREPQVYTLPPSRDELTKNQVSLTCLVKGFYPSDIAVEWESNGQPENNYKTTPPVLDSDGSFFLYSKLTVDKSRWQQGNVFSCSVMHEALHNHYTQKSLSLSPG
light: DILMTQSPLTLSVTIGQPASISCKSGQSLLDSDGKTYLNWLLQRPGQSPKRLIYLVSKLHSGVPDRFTGSGSGTDFTLKISRVEAEDLGVYYCWQGTHFPLTFGAGTKLELKRTVAAPSVFIFPPSDEQLKSGTASVVCLLNNFYPREAKVQWKVDNALQSGNSQESVTEQDSKDSTYSLSSTLTLSKADYEKHKVYACEVTHQGLSSPVTKSFNRGEC
notes: also called mAb 4-5G11
B15: lambda-5 antibody 4-9H8 (recombinant mouse-human chimeric IgG1/kappa) (antibody)
heavy: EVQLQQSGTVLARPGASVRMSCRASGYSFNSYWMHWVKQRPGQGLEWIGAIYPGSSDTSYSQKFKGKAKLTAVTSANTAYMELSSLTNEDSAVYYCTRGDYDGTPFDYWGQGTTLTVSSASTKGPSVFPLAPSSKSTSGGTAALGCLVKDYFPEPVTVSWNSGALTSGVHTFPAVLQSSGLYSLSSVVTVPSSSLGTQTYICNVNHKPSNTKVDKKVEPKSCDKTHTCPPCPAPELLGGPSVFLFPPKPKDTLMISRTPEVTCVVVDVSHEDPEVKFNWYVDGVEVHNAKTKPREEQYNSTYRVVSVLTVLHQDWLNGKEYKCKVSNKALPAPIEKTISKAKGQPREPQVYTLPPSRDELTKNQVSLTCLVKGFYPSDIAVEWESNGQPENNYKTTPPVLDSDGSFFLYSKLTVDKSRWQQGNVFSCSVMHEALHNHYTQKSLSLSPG
light: DIVMTQSPLTLSVTIGQPASISCKSGQSLLDSDGKTYLNWLLQRPGQSPKRLIYLVSKLHSGVPDRFTGSGSGTDFTLKISRVEAEDLGVYYCWQGTHFPLTFGAGTKLELKRTVAAPSVFIFPPSDEQLKSGTASVVCLLNNFYPREAKVQWKVDNALQSGNSQESVTEQDSKDSTYSLSSTLTLSKADYEKHKVYACEVTHQGLSSPVTKSFNRGEC
notes: also called mAb 4-9H8
B16: lambda-5 antibody 4-15E6 (recombinant mouse-human chimeric IgG1/kappa) (antibody, V domains shown)
VH: EVQLEESGAELVRSGASVKLSCTASGFNIKDYYLHWVKQRPEQGLEWIGWIDPENGNTDYAPKFQGKATMTADTSSNTAYLQLSSLTSEDTAVYYCNEGYYDYDTDSAMDYWGQGTSVTVSS
VL: DVLMTQTPLSLPVSLGDQASISCRSSQSLVHSDGITYLHWYLQKPGQSPKLLIYKVSNRFSGVPDRFSGSGSGTDFTLKISRVEAEDLGVYFCSQSTRVPWTFGGGTKLEIKR
notes: also called mAb 4-15E6
B17: lambda-5 antibody 4-12G1 (recombinant mouse-human chimeric IgG1/kappa) (antibody, V domains shown)
VH: EVQLEESGAELVRSGASVKLSCTASGFNIKDYYLHWVKQRPEQGLEWIGWIDPENGATDYAPKFQGKASMTADTSSNTAYLQLSSLTFEDTAVYYCNEGYYDYDADSAMDYWGQGTSVTVSS
VL: DVLMTQTPLSLPVSLGDQASISCRSSQSLVHSDGITYLHWYLQKPGQSPKLLIYKVSNRFSGVPDRFSGSGSGTDFTLKISRVEAEDLGVYFCSQSARVPWTFGGGTKLEIKR
notes: also called mAb 4-12G1

Key:
Assay in all cases: flow cytometry, saturation binding of recombinant chimeric mAb to NALM-6 cells
[1] = target: T1, human VpreB (on the pre-BCR-expressing …)
[2] = target: T1, human VpreB (on the pre-BCR-expressing …); remark: listed apart in the source
Protocol: (§1) Avidity of each VpreB antibody was determined by measuring saturation binding kinetics of antibody to NALM-6 cells using flow cytometry as follows. The cells were stained with a 3-fold descending titration of recombinant, chimeric VpreB antibody ranging from 133 nM to 0.002 nM. A PE/Cy5-labeled mouse anti-human IgG1 secondary antibody (Southern Biotech #9042-13) was used to detect cell-bound anti-VpreB or an IgG1 isotype control antibody (PAS-ISO6H4). The 50% effective concentration (EC₅₀) was calculated using GraphPad Prism software. Antibodies 5-4A9, 5-11D1, 5-14A8, and 5-14H5 all bound to VpreB-expressing NALM-6 cells with unusually strong binding avidity (<400 pM; FIG. 13, Table 16).
The binding avidity of the VpreB mAbs 5-2D7 and 5-9B12 was also determined by measuring saturation binding kinetics of recombinant, chimeric mAb to NALM-6 cells using flow cytometry as described above. Both mAbs bound to VpreB-expressing NALM-6 cells with unusually strong avidity (<400 pM; FIG. 15, Table 17).

[3] = target: T1, human VpreB (on the pre-BCR-expressing …); remark: listed apart in the source
Protocol: as §1

[4] = target: T2, human lambda-5 (on the pre-BCR-expressing human pre-B cell line NALM-6) (human, UniProt P15814 38-213)
T2 construct: On NALM-6 cells lambda-5 stands in the pre-BCR together with VpreB and the mu heavy chain; also called IGLL1; lambda-5 subunit of the SLC of human pre-BCR

[5] = target: T2, human lambda-5 (on the …); remark: listed apart in the source
Protocol: as §1
The avidity of each lambda-5 antibody was determined by measuring saturation binding kinetics of recombinant, chimeric mAb to NALM-6 cells using flow cytometry as described for the VpreB antibody saturation binding kinetics experiment. Antibodies 4-6D12, 4-5G11, 4-7A6, 4-7C1, 4-9H8, 4-12G1, 4-15E6, 4-17G9, 4-18G6, 4-19A9, and 4-20D2 all bound to VpreB- expressing NALM-6 cells with strong avidity (<30 nM; FIG. 16, Table 18).

T2 sequence (P15814 38-213 limits assumed): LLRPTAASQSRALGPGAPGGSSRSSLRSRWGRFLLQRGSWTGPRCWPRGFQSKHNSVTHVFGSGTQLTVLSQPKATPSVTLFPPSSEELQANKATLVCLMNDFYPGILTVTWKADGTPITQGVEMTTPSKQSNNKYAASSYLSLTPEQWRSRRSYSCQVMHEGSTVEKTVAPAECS

Binder	EC50 [1]	EC50 [2]	EC50 [3]	EC50 [4]	EC50 [5]
B1	< 0.4 nM	0.34 nM			
B2	< 0.4 nM		0.396 nM		
B3	< 0.4 nM		0.115 nM		
B4	< 0.4 nM		0.143 nM		
B5	< 0.4 nM	0.12 nM			
B6	< 0.4 nM		0.227 nM		
B7				< 30 nM	8.1 nM
B8				< 30 nM	1.9 nM
B9				< 30 nM	2.3 nM
B10				< 30 nM	8.4 nM
B11				< 30 nM	9 nM
B12				< 30 nM	10.2 nM
B13				< 30 nM	26.3 nM
B14				< 30 nM	6.2 nM
B15				< 30 nM	7.4 nM
B16				< 30 nM	3.7 nM
B17				< 30 nM	4.5 nM
